Experimental data taken from the supplement of paper PMC7877785.
± gives the uncertainty stated by the source.

Assay: self-splicing fitness, log relative to wild type (ln ratio); higher = more splicing; Tetrahymena group I intron in knt gene, E. coli kanamycin selection, DiMSum; sequences stand for … in CUCUCU…GGAGGGAAAAGUUAUCAGGCAUGCACCUGGUAGCUAGUCUUUAAACCAAUAGAUUGCAUCGGUUUAAAAGGCAAGACCGUCAAAUUGCGGGAAAGGGGUCAACAGCCGUUCAGUACCAAGUCUCAGGGGAAACUUUGAGAUGGCCUUGCAAAGGGUAUGGUAAUAAGCUGACGGACAUGGUCCUAACCACGCAGCCAAGUCCUAAGUCAACAGAUCUUCUGUUGAUAUGGAUGCAGUUCACAGACUAAAUGUCGGUCGGGGAAGAUGUAUUCUUCUCAUAAGAUAUAGUCGGACCUCUCCUUAAUGGGAGCUAGCGGAUGAAGUGAUGCAACACUGGAGCCGCUGGGAACUAAUUUGUAUGCGAAAGUAUAUUGAUUAGUUUUGGAGUACUCGUGGUCG
Procedure, shortened: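 Colonies from six replicate transformations of E. coli BL21(DE3) were pooled and amplicon-sequenced on an Illumina HiSeq 2500. The library placed an intron with all eight P1ex-region nucleotides randomised inside the knt kanamycin-resistance gene on pET-22b(+), and cells grew overnight at 37°C or 30°C on LB agar with or without 25 μg/mL kanamycin (plus 100 μg/mL carbenicillin, 50 μM IPTG, 0.2% rhamnose). Fitness is the DiMSum error-weighted combination of wild-type-normalised replicate fold changes, kanamycin versus none.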

Row | Sequence | self-splicing fitness (ln) (30 °C) | self-splicing fitness (ln) (37 °C)
1 | UUGUAGCAAUAUUACGAUUC | -3.76 ± 0.34 | -3.2 ± 0.3
2 | CACCAGCAAUAUUACGAGUC | -4.09 ± 0.19 | -1.74 ± 0.14
3 | CGAUAGCAAUAUUACGCUGA | -2.46 ± 0.17 | -1.59 ± 0.16
4 | CUGAAGCAAUAUUACGCCGU | -2.92 ± 0.31 | -2.4 ± 0.3
5 | CACAAGCAAUAUUACGAACC | -2.66 ± 0.47 | -1.98 ± 0.36
6 | ACCUAGCAAUAUUACGACUA | -2.72 ± 0.21 | -1.78 ± 0.23
7 | AUCCAGCAAUAUUACGAUUU | -0.0954 ± 0.061 | 0.488 ± 0.081
8 | AACCAGCAAUAUUACGAUAG | -2.87 ± 0.16 | -2.11 ± 0.15
9 | ACGCAGCAAUAUUACGAACA | -1.75 ± 0.081 | -1.36 ± 0.086
10 | UAAAAGCAAUAUUACGUUUG | -2.22 ± 0.1 | -0.909 ± 0.11
11 | UAGCAGCAAUAUUACGAACA | -0.591 ± 0.069 | 0.237 ± 0.081
12 | UUCCAGCAAUAUUACGCGUU | -2.35 ± 0.1 | -1.6 ± 0.1
13 | CCUGAGCAAUAUUACGUCUU |  | -2.42 ± 0.23
14 | UUAAAGCAAUAUUACGGUGU | -2.73 ± 0.11 | -1.29 ± 0.1
15 | UCCUAGCAAUAUUACGUCAG | -3.38 ± 0.29 | -2.41 ± 0.37
16 | GAACAGCAAUAUUACGCCAA | -1.94 ± 0.42 | -2.06 ± 0.32
17 | ACCUAGCAAUAUUACGAUAA | -2.61 ± 0.27 | -2.1 ± 0.23
18 | UUUAAGCAAUAUUACGGAGG | -2.95 ± 0.22 | -2.18 ± 0.27
19 | UGUGAGCAAUAUUACGUGUU | -3.8 ± 0.25 | -2.59 ± 0.25

Row | Sequence | self-splicing fitness (ln) (30 °C) | self-splicing fitness (ln) (37 °C)
20 | UUGCAGCAAUAUUACGUAAA | -1.25 ± 0.095 | -0.427 ± 0.12
21 | GCAAAGCAAUAUUACGCUUG | -3.98 ± 0.18 | -2.64 ± 0.18
22 | CCGGAGCAAUAUUACGUUUC | -2.4 ± 0.31 | -2.74 ± 0.48
23 | CGGCAGCAAUAUUACGAAUC | -4.16 ± 0.39 | -2.23 ± 0.34
24 | UCCCAGCAAUAUUACGGAGC | -1.44 ± 0.098 | -1.44 ± 0.18
25 | AGUAAGCAAUAUUACGCUCC | -3.21 ± 0.28 | -1.18 ± 0.2
26 | CUGUAGCAAUAUUACGCAUU | -3.8 ± 0.27 | -3.28 ± 0.47
27 | UGAAAGCAAUAUUACGCAUC |  | -3.14 ± 0.28
28 | CCGGAGCAAUAUUACGGGCA | -3.1 ± 0.48 | -2.4 ± 0.41
29 | AUAAAGCAAUAUUACGAUAC | -1.39 ± 0.12 | -0.441 ± 0.14
30 | UGCCAGCAAUAUUACGGAGU | -4.74 ± 0.27 | -1.34 ± 0.13
31 | GGGCAGCAAUAUUACGUCUU | -0.531 ± 0.081 | 0.0306 ± 0.098
32 | GACUAGCAAUAUUACGCAAC | -0.979 ± 0.15 | -1.54 ± 0.19
33 | GCCAAGCAAUAUUACGAGGA | -1.37 ± 0.1 | -0.561 ± 0.1
34 | CGCGAGCAAUAUUACGGCCG | -3.16 ± 0.3 | -1.35 ± 0.29
35 | ACCUAGCAAUAUUACGUUUA | -3.18 ± 0.17 | -2.68 ± 0.17
36 | GAGUAGCAAUAUUACGAUUG | -2.87 ± 0.25 | -2.14 ± 0.19
37 | ACAGAGCAAUAUUACGGCUC | -3.09 ± 0.16 | -2.37 ± 0.22
38 | ACGAAGCAAUAUUACGUAGG | -2.12 ± 0.099 | -1.43 ± 0.15
